Measurements from the supplement of paper PMC10899765.

Key:
Conditions in all cases: 20 nM; 72 h
[1] = system: MCF10A; test: percent viability (nuclei count relative to siNT); higher = more viable cells
Protocol: (§1)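 After 72 h, cells were fixed and stained with Hoechst and anti-fibrillarin, and nucleoli per nucleus were counted with CellProfiler. Values are plate-adjusted percent effect for the one-nucleolus and 5+ nucleoli phenotypes, normalised to siNT (0%) and to the positive controls siNOL11 or siKIF11 (100%), as the mean of biological triplicates. Percent viability is the nuclei count relative to siNT.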

[2] = system: MCF10A; test: 5+ nucleoli phenotype percent effect (relative to siNT 0% and siKIF11 100%); higher = more cells with five or more nucleoli
Protocol: as §1

[3] = system: MCF10A; test: one-nucleolus phenotype percent effect (relative to siNT 0% and siNOL11 100%); higher = more cells with one nucleolus (ribosome biogenesis inhibition)
Protocol: as §1

GGGGCUGGGCGCGCGCC [hsa-miR-4492]
percent viability [1]: 33.5%
5+ nucleoli phenotype percent effect [2]: -0.324%
one-nucleolus phenotype percent effect [3]: 24.8%

ACCCCUCGUUUCUUCCCCCAG [hsa-miR-6795-3p]
percent viability [1]: 101%
5+ nucleoli phenotype percent effect [2]: 14.8%
one-nucleolus phenotype percent effect [3]: -18.5%

UGGGCUCAGGGUACAAAGGUU [hsa-miR-4437]
percent viability [1]: 24.3%
5+ nucleoli phenotype percent effect [2]: -5.83%
one-nucleolus phenotype percent effect [3]: 28.8%

CUGUGCGUGUGACAGCGGCUGA [hsa-miR-210]
percent viability [1]: 56.6%
5+ nucleoli phenotype percent effect [2]: -13.9%
one-nucleolus phenotype percent effect [3]: -1.99%

AUCACAUUGCCAGGGAUUUCC [hsa-miR-23a-3p]
percent viability [1]: 126%
5+ nucleoli phenotype percent effect [2]: -6.74%
one-nucleolus phenotype percent effect [3]: -9.26%

UCUCUGAGUACCAUAUGCCUUGU [hsa-miR-3921]
percent viability [1]: 59.6%
5+ nucleoli phenotype percent effect [2]: -6.05%
one-nucleolus phenotype percent effect [3]: -20.1%

AUGGGUGAAUUUGUAGAAGGAU [hsa-miR-1262]
percent viability [1]: 27.2%
5+ nucleoli phenotype percent effect [2]: -20.4%
one-nucleolus phenotype percent effect [3]: 17.3%

AGAGUUAACUCAAAAUGGACUA [hsa-miR-4424]
percent viability [1]: 51.7%
5+ nucleoli phenotype percent effect [2]: 6.94%
one-nucleolus phenotype percent effect [3]: -9.95%

CCGCUUUCUGAGCUGGAC [hsa-miR-4315]
percent viability [1]: 25.2%
5+ nucleoli phenotype percent effect [2]: -27.2%
one-nucleolus phenotype percent effect [3]: 34.8%

UUUAGGAUAAGCUUGACUUUUG [hsa-miR-651]
percent viability [1]: 140%
5+ nucleoli phenotype percent effect [2]: 33.3%
one-nucleolus phenotype percent effect [3]: -20.4%

AAGCUUUUUGCUCGAAUUAUGU [hsa-miR-208b-5p]
percent viability [1]: 108%
5+ nucleoli phenotype percent effect [2]: -1.23%
one-nucleolus phenotype percent effect [3]: -24.2%

ACCGAAGACUGUGCGCUAAUCU [hsa-miR-4671-5p]
percent viability [1]: 99.3%
5+ nucleoli phenotype percent effect [2]: 14.8%
one-nucleolus phenotype percent effect [3]: -20.7%

AAGGAACCAGAAAAUGAGAAGU [hsa-miR-3914]
percent viability [1]: 111%
5+ nucleoli phenotype percent effect [2]: 57.2%
one-nucleolus phenotype percent effect [3]: -40.6%

ACUGGAUUUGGAGCCAGAA [hsa-miR-378j]
percent viability [1]: 42.3%
5+ nucleoli phenotype percent effect [2]: -1.17%
one-nucleolus phenotype percent effect [3]: -17.6%

CUCUCUACUGACUUGCAACAUA [hsa-miR-4684-5p]
percent viability [1]: 72.5%
5+ nucleoli phenotype percent effect [2]: 33.1%
one-nucleolus phenotype percent effect [3]: -6.81%

UCUCUGAGCAAGGCUUAACACC [hsa-miR-4653-5p]
percent viability [1]: 50.6%
5+ nucleoli phenotype percent effect [2]: -12.4%
one-nucleolus phenotype percent effect [3]: 18.9%

AUGAAGCCUUCUCUGCCUUACG [hsa-miR-7843-3p]
percent viability [1]: 37.8%
5+ nucleoli phenotype percent effect [2]: -32.5%
one-nucleolus phenotype percent effect [3]: 15.8%

UUGGGGUUUGGGGUGCAGACAUUGC [hsa-miR-6855-5p]
percent viability [1]: 9.03%
5+ nucleoli phenotype percent effect [2]: -2.12%
one-nucleolus phenotype percent effect [3]: 34.4%

AGUGGUUCUUAACAGUUCAACAGUU [hsa-miR-203a-5p]
percent viability [1]: 150%
5+ nucleoli phenotype percent effect [2]: 60.5%
one-nucleolus phenotype percent effect [3]: -32.6%

GGGCCUCUCUUGUCAUCCUGCAG [hsa-miR-6744-3p]
percent viability [1]: 81.6%
5+ nucleoli phenotype percent effect [2]: 49.2%
one-nucleolus phenotype percent effect [3]: -21.1%

ACCGCCUGCCCAGUGA [hsa-miR-4485-5p]
percent viability [1]: 70.4%
5+ nucleoli phenotype percent effect [2]: 24.1%
one-nucleolus phenotype percent effect [3]: -16.3%

AACUGGCCCUCAAAGUCCCGCU [hsa-miR-193b-3p]
percent viability [1]: 16.9%
5+ nucleoli phenotype percent effect [2]: -6.55%
one-nucleolus phenotype percent effect [3]: 24.4%

UCAGUGCAUGACAGAACUUGG [hsa-miR-152]
percent viability [1]: 145%
5+ nucleoli phenotype percent effect [2]: 69.9%
one-nucleolus phenotype percent effect [3]: -26.4%

GUGGACCAGGAUGGCAAGGGCU [hsa-miR-4776-5p]
percent viability [1]: 77.7%
5+ nucleoli phenotype percent effect [2]: 14.5%
one-nucleolus phenotype percent effect [3]: -5.58%

AUACACAUACACGCAACACACAU [hsa-miR-466]
percent viability [1]: 38.7%
5+ nucleoli phenotype percent effect [2]: -1.51%
one-nucleolus phenotype percent effect [3]: -17.2%
